Source: PMC5176304 (PLoS ONE, 2016)
Blank lines part the entries; values can stand above or below the molecule they belong to.

Key:
Assay in all cases: SEC-MALS; size exclusion chromatography with multi-angle light scattering of Ni-purified uricases dialyzed into PBS; noncovalent molecular weight compared with the theoretical tetramer
[1] = target: Deinococcus radiodurans uricase (Deinococcus radiodurans)
[2] = target: Kyrpidia tusciae uricase (Kyrpidia tusciae)
[3] = target: Deinococcus geothermalis uricase (Deinococcus geothermalis)
[4] = target: Solibacter usitatus uricase (Solibacter usitatus)
[5] = target: Terriglobus saanensis uricase (Terriglobus saanensis)
[6] = target: Granulicella tundricola uricase (Granulicella tundricola)
[7] = target: the molecule itself

- stoichiometry N [1]: 4
Molecule: Deinococcus radiodurans uricase (enzyme)

- stoichiometry N [3]: 4
Molecule: Deinococcus geothermalis uricase (enzyme)

- stoichiometry N [6]: 4
Molecule: Granulicella tundricola uricase (enzyme)

Further lines, the molecule ahead of its results:

Molecule: Kyrpidia tusciae uricase (enzyme)
- stoichiometry N [2]: 4

Molecule: Solibacter usitatus uricase (enzyme)
- stoichiometry N [4]: 4

Molecule: Terriglobus saanensis uricase (enzyme)
- stoichiometry N [5]: 4

B1: Arthrobacter globiformis uricase (C-terminally truncated by 11 amino acids, N-terminal His tag) (enzyme, UniProt D0VWQ1 1-291, looked up)
chain: MTATAETSTGTKVVLGQNQYGKAEVRLVKVTRNTARHEIQDLNVTSQLRGDFEAAHTAGDNAHVVATDTQKNTVYAFARDGFATTEEFLLRLGKHFTEGFDWVTGGRWAAQQFFWDRINDHDHAFSRNKSEVRTAVLEISGSEQAIVAGIEGLTVLKSTGSEFHGFPRDKYTTLQETTDRILATDVSARWRYNTVEVDFDAVYASVRGLLLKAFAETHSLALQQTMYEMGRAVIETHPEIDEIKMSLPNKHHFLVDLQPFGQDNPNEVFYAADRPYGLIEATIQREGSRAD
notes: Synthetic gene in a modified pET15b-based vector; also called RGD-containing Arthrobacter globiformis uricase; uricase containing RGD
- stoichiometry N [7]: 4
